The target in assay [1] is T1, Human neutrophil cathepsin G (human, UniProt P08311).
T1 sequence: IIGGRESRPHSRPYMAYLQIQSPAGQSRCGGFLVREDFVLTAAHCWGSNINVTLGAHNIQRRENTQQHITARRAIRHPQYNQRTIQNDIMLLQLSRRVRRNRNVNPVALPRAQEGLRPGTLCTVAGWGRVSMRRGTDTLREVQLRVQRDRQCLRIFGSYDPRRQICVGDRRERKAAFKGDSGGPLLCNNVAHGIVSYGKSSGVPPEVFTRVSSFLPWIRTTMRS
As to the kind of experiment: enzyme inhibition; 30 min preincubation at 37 C; Suc-AAPF-AMC hydrolysis by fluorescence; Ki* corrected for substrate. How it is done: (§1) The BTL.009 concentration was determined by amino acid analysis. The concentration of human neutrophil elastase, cathepsin G, and proteinase 3 were based on the manufacturer's specifications. […] Hydrolysis of AMC-conjugated peptides was monitored on a Hitachi model F4500 fluorometer (excitation=370 nm, emission=432 nm) over the first 2 minutes of the reaction. Ki* values were determined from plots of fractional rate versus inhibitor concentration, which were fit by nonlinear regression analysis (Enzifitter™ by Bio soft, Cambridge UK) as described (44). Ki values were obtained by correction for the effect of substrate as described (44).

For assay [2], the target named is Human neutrophil elastase (human, UniProt P08246). The experiment in a line: enzyme inhibition; 30 min preincubation at 37 C; Suc-AAPV-AMC hydrolysis by fluorescence; Ki* corrected for substrate. As to the method:
as §1

In assay [3] the target is T2, Human neutrophil proteinase 3 (human, UniProt P24158).
T2 sequence: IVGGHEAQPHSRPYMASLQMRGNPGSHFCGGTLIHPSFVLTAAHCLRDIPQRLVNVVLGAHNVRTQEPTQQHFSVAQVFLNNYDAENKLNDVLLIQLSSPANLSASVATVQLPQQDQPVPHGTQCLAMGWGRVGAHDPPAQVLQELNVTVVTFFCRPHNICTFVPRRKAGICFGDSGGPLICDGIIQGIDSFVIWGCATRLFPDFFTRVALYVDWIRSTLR
The assay is described as above. How it is done:
as §1

This note sets out measurements from US6294648, “Protein having proteinase inhibitor activity” (Bayer Corporation, dated 2001).

Usually Ki stands for the dissociation constant of the complex between target and ligand, obtained from inhibition or displacement.

B1: BTL.009 (other)
chain: KQDVCEMPKETGPCLAYFLHWWYDKKDNTCSMFVYGGCQGNNNNFQSKANCLNTC
For B1, the results for the Ki in assay [1], in assay [2] and in assay [3] were 1800 nM, 8 nM and 190 nM, respectively.
